In US20240052061A1:

Target: T1, human ecto-nucleoside triphosphate diphosphohydrolase-3 (NTPDase3) (human) (UniProt O75355)
T1 sequence (looked up): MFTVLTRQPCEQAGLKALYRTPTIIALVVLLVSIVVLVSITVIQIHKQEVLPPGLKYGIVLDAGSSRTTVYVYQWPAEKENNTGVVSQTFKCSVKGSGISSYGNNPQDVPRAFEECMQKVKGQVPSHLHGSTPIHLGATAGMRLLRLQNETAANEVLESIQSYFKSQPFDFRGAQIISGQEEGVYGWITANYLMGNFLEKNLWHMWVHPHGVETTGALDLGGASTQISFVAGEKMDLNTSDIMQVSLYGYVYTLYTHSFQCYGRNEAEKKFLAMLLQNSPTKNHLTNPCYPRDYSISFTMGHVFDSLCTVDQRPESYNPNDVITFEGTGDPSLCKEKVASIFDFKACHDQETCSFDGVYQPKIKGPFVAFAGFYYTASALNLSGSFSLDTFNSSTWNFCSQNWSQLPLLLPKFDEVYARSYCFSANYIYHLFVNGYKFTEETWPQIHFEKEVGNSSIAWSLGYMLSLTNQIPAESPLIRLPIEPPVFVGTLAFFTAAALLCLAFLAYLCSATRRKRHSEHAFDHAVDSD
Assay: cell-based or functional assay

ADCC EC50 (µg/mL), NFAT luciferase reporter Jurkat/hCD16a-158V: 0.047 µg/mL
ADCC fold increase in relation to parental clone at 1 µg/mL: 1.5 fold
CDC EC50: 0.867 µg/mL
Enzyme Activity Inhibition Capacity: % of Maximal Inhibition: 15%
B1: 8E1 hIgG1 (antibody, V domains shown)
VH: EQQLLESGGGLVQPGGSLRLSCAVSGFSLSSYAMGWVRQAPGKGLEFIGIISYSGNTYYASWAKGRFTISKDSSKNTVYLQMNSLRAEDTAVYFCARARYGGYSTNSYYLNIWGPGTLVTVSS
VL: DVQMTQSPSTLSASVGDRVTITCQASENIYRVLAWYQQKPGKRPKLLIYGASNLESGVPSRFSGSGSGTEYTLTISSLQPDDFATYYCQGVVYNSDDSAFGGGTKVEIK
CDC % of Maximal Cytotoxicity: 25%
CDC: fold increase in the maximal CDC cytotoxicity over the parental 8E1 Hu/Ra chimeric clone: 2 fold
